For experiment [1], the target named is HIV-1 HXB2 Env (gp120/gp41) expressed on the surface of CHO-WT cells (HIV-1 HXB2) (UniProt P04578).
In experiment [2] the target is N-peptide N36 (aa 546-581 of HIV-1 HXB2 gp41 NHR) (HIV-1 HXB2) (UniProt P04578). The experiment can be described thus: ELISA. For orientation: In an ELISA, binding on a coated surface is turned into a signal by an enzyme label.

As usually defined, the IC50 is the concentration that inhibits the measured activity by half. A low value points to higher potency. As to “2DLT (bivalent recombinant protein: D1D2 domain of CD4 linked to T1144 by a 35-mer linker) (designed binder)”, in experiment [1], the IC50 of HIV-1 replication, Bal (B, R5) was determined as 0.0108 µM; the IC50 of HIV-1 replication, IIIB (B, X4) came out at 0.00564 µM; the IC50 of HIV-1 replication, primary isolate 92TH009 (E/A, R5) amounted to 0.0175 µM; the IC50 of HIV-1 replication, primary isolate 92US657 (B, R5) was found to be 0.0172 µM. Besides, in experiment [1], the IC50 of HIV-1 replication, primary isolate 93 MW959 (C, R5) worked out at 0.0189 µM; the IC90 of HIV-1 replication, Bal (B, R5) came out at 0.0444 µM; the IC90 of HIV-1 replication, IIIB (B, X4) amounted to 0.0288 µM; the IC90 of HIV-1 replication, primary isolate 92TH009 (E/A, R5) is 0.0719 µM. In experiment [1], this substance showed an IC90 of HIV-1 replication, primary isolate 92US657 (B, R5) of 0.0519 µM and an IC90 of HIV-1 replication, primary isolate 93 MW959 (C, R5) of 0.0489 µM. In experiment [2], this substance registered an IC50 of 0.5 µM.
In the case of “T1144 (C-peptide, next generation HIV fusion inhibitor)”, in experiment [1], the IC50 of HIV-1 replication, Bal (B, R5) is 0.00403 µM; the IC50 of HIV-1 replication, IIIB (B, X4) was determined as 0.00213 µM; the IC50 of HIV-1 replication, primary isolate 92TH009 (E/A, R5) came to 0.00136 µM; the IC50 of HIV-1 replication, primary isolate 92US657 (B, R5) came out at 0.0132 µM. In experiment [1], this substance registered an IC50 of HIV-1 replication, primary isolate 93 MW959 (C, R5) of 0.00235 µM; an IC90 of HIV-1 replication, Bal (B, R5) of 0.0281 µM; an IC90 of HIV-1 replication, IIIB (B, X4) of 0.0352 µM; an IC90 of HIV-1 replication, primary isolate 92TH009 (E/A, R5) of 0.00621 µM. In experiment [1], this substance showed an IC90 of HIV-1 replication, primary isolate 92US657 (B, R5) of 0.0423 µM and an IC90 of HIV-1 replication, primary isolate 93 MW959 (C, R5) of 0.0163 µM.

These data come from article PMC3531269.
